Consider one substance from CN105330739A.

The test deals with huVEGF 165 (human). The experiment in a line: indirect ELISA, huVEGF coated at 0.5 ug/ml, four-parameter fit.

pEC50: −log10 of the molar value.

huVEGF 165 (human), sequence (chain, as listed by the source, form in doubt): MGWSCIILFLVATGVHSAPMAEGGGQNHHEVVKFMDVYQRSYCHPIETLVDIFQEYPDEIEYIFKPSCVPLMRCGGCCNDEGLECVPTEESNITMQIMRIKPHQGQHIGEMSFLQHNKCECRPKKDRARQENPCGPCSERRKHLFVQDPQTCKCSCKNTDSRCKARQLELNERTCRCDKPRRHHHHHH

Usually pEC50 stands for −log10 of the EC50, conventionally taken in molar units. Higher therefore signals a small EC50. As for 商品化贝伐单抗(avastin) (antibody), the pEC50 is 9.72.
